Target: the molecule itself
Assay: crystal structure

B1: FolM alternative dihydrofolate reductase 1 from Brucella suis (enzyme)
chain: MLNDPEARMVANCPVLVTGGARRIGKAIVEDLASHGFPVAIHCNRSLDEGEAIANRINDSGGNACVVQADLEGDVRGLVKQASDRIGPIRLLVNNASLFQEDKVGALDMALWDRHFAVHLKTPVILAEDMRKALPEDQDGLVVNIIDQRVWKLNPQFFSYTLSKSALWNATRTLAQALAPRIRVNAIAPGPTLPSERQRPEDFERQVSKLPLQRAPELPEFGRTVRYFWENRSITGQMIALDGGQHLAWETPDIAGITE
notes: also called BsFolM; His-BsFolM
stoichiometry N: 4

B2: FolM alternative dihydrofolate reductase 1 from Brucella canis (enzyme)
chain: MVLNDPEARMVANCPVLVTGGARRIGKAIVEDLASHGFPVAIHCNRSLDEGEAIANRINDSGGNACVVQADLEGDVRGLVKQASDRIGPIRLLVNNASLFQEDKVGALDMALWDRHFAVHLKTPVILAEDMRKALPEDQDGLVVNIIDQRVWKLNPQFFSYTLSKTALWNATRTLAQALAPRIRVNAIAPGPTLPSERQRPEDFERQVSKLPLQRAPELPEFGRTVRYFWENRSITGQMIALDGGQHLAWETPDIAELPNK
notes: also called BcFolM; His-BcFolM
stoichiometry N: 4
